Results reported in US20110250130A1 (AbbVie / Abbott, published 2011).

Legend:
[1] = biological target: T1, Recombinant Human TNF-α/TNFSF1A (human, UniProt P01375 77-233); assay: cell-based or functional assay
[2] = biological target: T1, Recombinant Human TNF-α/TNFSF1A; assay: SPR (Biacore), antibody captured, TNF-α in solution
Experimental: The BIACORE assay (Biacore, Inc. Piscataway, N.J.) determines the affinity of antibodies with kinetic measurements of on-rate and off-rate constants. Binding of antibodies to a target antigen (for example, a purified recombinant target antigen) is determined by surface plasmon resonance-based measurements with a Biacore® 1000 or 3000 instrument (Biacore® AB, Uppsala, Sweden) using running HBS-EP (10 mM HEPES [pH 7.4], 150 mM NaCl, 3 mM EDTA, and 0.005% surfactant P20) at 25° C. All chemicals are obtained from Biacore® AB (Uppsala, Sweden) or otherwise from a different source as described in the text. For example, approximately 5000 RU of goat anti-mouse IgG, (Fcγ), fragment specific polyclonal antibody (Pierce Biotechnology Inc, Rockford, Ill., US) diluted in 10 mM sodium acetate (pH 4.5) is directly immobilized across a CM5 research grade biosensor chip using a standard amine coupling kit according to manufacturer's instructions and procedures at 25 μg/ml. Unreacted moieties on the biosensor surface are blocked with ethanolamine. Modified carboxymethyl dextran surface in flowcell 2 and 4 is used as a reaction surface. Unmodified carboxymethyl dextran without goat anti-mouse IgG in flow cell 1 and 3 is used as the reference surface. For kinetic analysis, rate equations derived from the 1:1 Langmuir binding model are fitted simultaneously to association and dissociation phases of all eight injections (using global fit analysis) with the use of Biaevaluation 4.0.1 software. Purified antibodies are diluted in HEPES-buffered saline for capture across goat anti-mouse IgG specific reaction surfaces. Antibodies to be captured as a ligand (25 μg/ml) are injected over reaction matrices at a flow rate of 5 μl/minute. The association and dissociation rate constants, kₒₙ (M⁻¹s⁻¹) and koff (s⁻¹), are determined under a continuous flow rate of 25 μl/minute. Rate constants are derived by making kinetic binding measurements at different antigen concentrations ranging from 10-200 nM. The equilibrium dissociation constant (M) of the reaction between antibodies and the target antigen is then calculated from the kinetic rate constants by the following formula: KD=koff/kₒₙ. Binding is recorded as a function of time and kinetic rate constants are calculated. In this assay, on-rates as fast as 10⁶ M⁻¹s⁻¹ and off-rates as slow as 10⁻⁶ s⁻¹ can be measured.

T1 sequence (P01375 77-233 limits assumed): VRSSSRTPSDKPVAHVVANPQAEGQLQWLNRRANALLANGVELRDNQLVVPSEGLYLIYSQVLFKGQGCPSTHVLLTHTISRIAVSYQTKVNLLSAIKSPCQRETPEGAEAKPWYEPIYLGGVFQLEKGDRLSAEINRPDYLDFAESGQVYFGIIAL

| Binder | TNF-α neutralization assay IC50 (nM), L929 cells [1] | Kd [2] | koff [2] | kon [2] |
| --- | --- | --- | --- | --- |
| AB248 (antibody, V domains shown, also called hMAK195VH.1b / hMAK195VL.1) VH: EVQLQESGPGLVKPSETLSLTCTVSGFSLSDYGVNWIRQPPGKGLEWIGMIWGDGSTDYDSTLKSRVTISKDTSKNQFSLKLSSVTAADTAVYYCAREWHHGPVAYWGQGTLVTVSS VL: DIQMTQSPSSLSASVGDRVTITCKASQAVSSAVAWYQQKPGKAPKLLIYWASTRHTGVPSRFSGSGSGTDFTLTISSLQPEDFATYYCQQHYSTPFTFGQGTKLEIK | 0.213 nM | 0.174 nM | 0.000316 s⁻¹ | 1.82e+06 M⁻¹ s⁻¹ |
| AB250 (antibody, V domains shown, also called hMAK195VH.1b / hMAK195VL.2) VH: EVQLQESGPGLVKPSETLSLTCTVSGFSLSDYGVNWIRQPPGKGLEWIGMIWGDGSTDYDSTLKSRVTISKDTSKNQFSLKLSSVTAADTAVYYCAREWHHGPVAYWGQGTLVTVSS VL: EIVMTQSPATLSLSPGERATLSCKASQAVSSAVAWYQQKPGQAPRLLIYWASTRHTGIPARFSGSGSGTDFTLTISSLQPEDFAVYYCQQHYSTPFTFGQGTKLEIK | 0.301 nM | 0.179 nM | 0.000356 s⁻¹ | 2e+06 M⁻¹ s⁻¹ |
| AB260 (antibody, V domains shown, also called hMAK195VH.2b / hMAK195VL.1) VH: EVQLVESGGGLVQPGGSLRLSCAASGFTLSDYGVNWVRQAPGKGLEWVSMIWGDGSTDYDSTLKSRFTISKDNSKNTLYLQMNSLRAEDTAVYYCAREWHHGPVAYWGQGTLVTVSS VL: DIQMTQSPSSLSASVGDRVTITCKASQAVSSAVAWYQQKPGKAPKLLIYWASTRHTGVPSRFSGSGSGTDFTLTISSLQPEDFATYYCQQHYSTPFTFGQGTKLEIK | 0.093 nM | 0.101 nM | 0.00023 s⁻¹ | 2.27e+06 M⁻¹ s⁻¹ |
| AB242 (antibody, V domains shown, also called hMAK195VH.1 / hMAK195VL.2) VH: EVQLQESGPGLVKPSETLSLTCTVSGGSISDYGVNWIRQPPGKGLEWIGMIWGDGSTDYDSTLKSRVTISVDTSKNQFSLKLSSVTAADTAVYYCAREWHHGPVAYWGQGTLVTVSS VL: EIVMTQSPATLSLSPGERATLSCKASQAVSSAVAWYQQKPGQAPRLLIYWASTRHTGIPARFSGSGSGTDFTLTISSLQPEDFAVYYCQQHYSTPFTFGQGTKLEIK | 25.1 nM | 0.796 nM | 0.00142 s⁻¹ | 1.79e+06 M⁻¹ s⁻¹ |
| AB249 (antibody, V domains shown, also called A3249; hMAK195VH.1b / hMAK195VL.1a) VH: EVQLQESGPGLVKPSETLSLTCTVSGFSLSDYGVNWIRQPPGKGLEWIGMIWGDGSTDYDSTLKSRVTISKDTSKNQFSLKLSSVTAADTAVYYCAREWHHGPVAYWGQGTLVTVSS VL: DIQMTQSPSSLSASVGDRVTITCKASQAVSSAVAWYQQKPGKSPKLLIYWASTRHTGVPSRFSGSGSGTDFTLTISSLQPEDFATYYCQQHYSTPFTFGQGTKLEIK | 0.245 nM | 0.156 nM | 0.000315 s⁻¹ | 2.04e+06 M⁻¹ s⁻¹ |
| AB251 (antibody, V domains shown, also called hMAK195VH.1b / hMAK195VL.2a) VH: EVQLQESGPGLVKPSETLSLTCTVSGFSLSDYGVNWIRQPPGKGLEWIGMIWGDGSTDYDSTLKSRVTISKDTSKNQFSLKLSSVTAADTAVYYCAREWHHGPVAYWGQGTLVTVSS VL: EIVMTQSPATLSLSPGERATLSCKASQAVSSAVAWYQQKPGQSPRLLIYWASTRHTGVPARFSGSGSGTDFTLTISSLQPEDFAVYYCQQHYSTPFTFGQGTKLEIK | 0.35 nM | 0.25 nM | 0.000425 s⁻¹ | 1.71e+06 M⁻¹ s⁻¹ |
| AB241 (antibody, V domains shown, also called hMAK195VH.1 / hMAK195VL.1a) VH: EVQLQESGPGLVKPSETLSLTCTVSGGSISDYGVNWIRQPPGKGLEWIGMIWGDGSTDYDSTLKSRVTISVDTSKNQFSLKLSSVTAADTAVYYCAREWHHGPVAYWGQGTLVTVSS VL: DIQMTQSPSSLSASVGDRVTITCKASQAVSSAVAWYQQKPGKSPKLLIYWASTRHTGVPSRFSGSGSGTDFTLTISSLQPEDFATYYCQQHYSTPFTFGQGTKLEIK | 5.33 nM | 0.573 nM | 0.0013 s⁻¹ | 2.27e+06 M⁻¹ s⁻¹ |
| AB240 (antibody, V domains shown, also called hMAK195VH.1 / hMAK195VL.1) VH: EVQLQESGPGLVKPSETLSLTCTVSGGSISDYGVNWIRQPPGKGLEWIGMIWGDGSTDYDSTLKSRVTISVDTSKNQFSLKLSSVTAADTAVYYCAREWHHGPVAYWGQGTLVTVSS VL: DIQMTQSPSSLSASVGDRVTITCKASQAVSSAVAWYQQKPGKAPKLLIYWASTRHTGVPSRFSGSGSGTDFTLTISSLQPEDFATYYCQQHYSTPFTFGQGTKLEIK | 14.2 nM | 1.4 nM | 0.00228 s⁻¹ | 1.64e+06 M⁻¹ s⁻¹ |
| AB243 (antibody, V domains shown, also called hMAK195VH.1 / hMAK195VL.2a) VH: EVQLQESGPGLVKPSETLSLTCTVSGGSISDYGVNWIRQPPGKGLEWIGMIWGDGSTDYDSTLKSRVTISVDTSKNQFSLKLSSVTAADTAVYYCAREWHHGPVAYWGQGTLVTVSS VL: EIVMTQSPATLSLSPGERATLSCKASQAVSSAVAWYQQKPGQSPRLLIYWASTRHTGVPARFSGSGSGTDFTLTISSLQPEDFAVYYCQQHYSTPFTFGQGTKLEIK | 50.7 nM | 1.62 nM | 0.0027 s⁻¹ | 1.72e+06 M⁻¹ s⁻¹ |
| AB247 (antibody, V domains shown, also called hMAK195VH.1a / hMAK195VL.2a) VH: EVQLQESGPGLVKPSETLSLTCTVSGFSLSDYGVNWVRQPPGKGLEWLGMIWGDGSTDYDSTLKSRLTISKDNSKSQISLKLSSVTAADTAVYYCAREWHHGPVAYWGQGTLVTVSS VL: EIVMTQSPATLSLSPGERATLSCKASQAVSSAVAWYQQKPGQSPRLLIYWASTRHTGVPARFSGSGSGTDFTLTISSLQPEDFAVYYCQQHYSTPFTFGQGTKLEIK | 0.186 nM | 0.0996 nM | 0.00026 s⁻¹ | 2.62e+06 M⁻¹ s⁻¹ |

Further lines, results first:

| TNF-α neutralization assay IC50 (nM), L929 cells [1] | Kd [2] | koff [2] | kon [2] | Binder |
| --- | --- | --- | --- | --- |
| 0.072 nM | 0.0994 nM | 0.00033 s⁻¹ | 3.32e+06 M⁻¹ s⁻¹ | AB245 (antibody, V domains shown, also called hMAK195VH.1a / hMAK195VL.1a) VH: EVQLQESGPGLVKPSETLSLTCTVSGFSLSDYGVNWVRQPPGKGLEWLGMIWGDGSTDYDSTLKSRLTISKDNSKSQISLKLSSVTAADTAVYYCAREWHHGPVAYWGQGTLVTVSS VL: DIQMTQSPSSLSASVGDRVTITCKASQAVSSAVAWYQQKPGKSPKLLIYWASTRHTGVPSRFSGSGSGTDFTLTISSLQPEDFATYYCQQHYSTPFTFGQGTKLEIK |
| 0.279 nM | 0.0733 nM | 0.000221 s⁻¹ | 3.02e+06 M⁻¹ s⁻¹ | AB253 (antibody, V domains shown, also called hMAK195VH.2 / hMAK195VL.1a) VH: EVQLVESGGGLVQPGGSLRLSCAASGFTFSDYGVNWVRQAPGKGLEWVSMIWGDGSTDYDSTLKSRFTISRDNSKNTLYLQMNSLRAEDTAVYYCAREWHHGPVAYWGQGTLVTVSS VL: DIQMTQSPSSLSASVGDRVTITCKASQAVSSAVAWYQQKPGKSPKLLIYWASTRHTGVPSRFSGSGSGTDFTLTISSLQPEDFATYYCQQHYSTPFTFGQGTKLEIK |
| 0.099 nM | 0.0458 nM | 0.000119 s⁻¹ | 2.61e+06 M⁻¹ s⁻¹ | AB246 (antibody, V domains shown, also called hMAK195VH.1a / hMAK195VL.2) VH: EVQLQESGPGLVKPSETLSLTCTVSGFSLSDYGVNWVRQPPGKGLEWLGMIWGDGSTDYDSTLKSRLTISKDNSKSQISLKLSSVTAADTAVYYCAREWHHGPVAYWGQGTLVTVSS VL: EIVMTQSPATLSLSPGERATLSCKASQAVSSAVAWYQQKPGQAPRLLIYWASTRHTGIPARFSGSGSGTDFTLTISSLQPEDFAVYYCQQHYSTPFTFGQGTKLEIK |
| 0.222 nM | 0.0866 nM | 0.000252 s⁻¹ | 2.92e+06 M⁻¹ s⁻¹ | AB252 (antibody, V domains shown, also called hMAK195VH.2 / hMAK195VL.1) VH: EVQLVESGGGLVQPGGSLRLSCAASGFTFSDYGVNWVRQAPGKGLEWVSMIWGDGSTDYDSTLKSRFTISRDNSKNTLYLQMNSLRAEDTAVYYCAREWHHGPVAYWGQGTLVTVSS VL: DIQMTQSPSSLSASVGDRVTITCKASQAVSSAVAWYQQKPGKAPKLLIYWASTRHTGVPSRFSGSGSGTDFTLTISSLQPEDFATYYCQQHYSTPFTFGQGTKLEIK |
| 0.155 nM | 0.0891 nM | 0.000335 s⁻¹ | 3.8e+06 M⁻¹ s⁻¹ | AB244 (antibody, V domains shown, also called hMAK195VH.1a / hMAK195VL.1) VH: EVQLQESGPGLVKPSETLSLTCTVSGFSLSDYGVNWVRQPPGKGLEWLGMIWGDGSTDYDSTLKSRLTISKDNSKSQISLKLSSVTAADTAVYYCAREWHHGPVAYWGQGTLVTVSS VL: DIQMTQSPSSLSASVGDRVTITCKASQAVSSAVAWYQQKPGKAPKLLIYWASTRHTGVPSRFSGSGSGTDFTLTISSLQPEDFATYYCQQHYSTPFTFGQGTKLEIK |
